Our source for the Kd values is publication doi:10.1101/660928.

The data set has as its system Rv1626 D65E (phosphomimic, Rv1626~P) (Mycobacterium tuberculosis). The data set can be described thus: EMSA. In general terms: Mobility shift assays separate free from complexed probe on a gel.

“5' UTR of Mtb Rv1936 (category 1 ANTAR RNA)” displayed a Kd of 15 µM.

The Kd is the equilibrium constant for the complex coming apart. The low end stands for a tighter complex, the high end for a looser complex.
